The source of these data is paper PMC9633789 (Nature Communications, 2022).

The series concerns the molecule itself. Put plainly: SEC; Superose 6 Increase 10/300 GL; 25 mM HEPES-KOH pH 8.0, 100 mM NaCl, 5 mM MgCl2, 1 mM DTT, 10% sucrose; step of the purification of His-p97. A general note: In gel filtration, larger molecules generally elute earlier.

As a reminder, the stoichiometry N is the number of molecules, sites or subunits per partner or assembly.

B1: His-p97 (recombinant Xenopus p97) (enzyme, UniProt P23787 1-805, looked up)
chain: MASGSDTKSDDLSTAILKQKSRPNRLIVDESINEDNSMVSLSQAKMDELQLFRGDTVLLKGKKRREAVCIVLSDDTCSDEKIRMNRVVRNNLRVRLGDVISIQPCPDVKYGKRVHVLPIDDTVEGITGNLFEVYLKPYFLEAYRPIRKGDIFLVRGGMRAVEFKVVETDPSPYCIVAPDTVIHCEGEPIKREDEEESLNEVGYDDIGGCRKQLAQIKEMVELPLRHPALFKAIGVKPPRGILLYGPPGTGKTLIARAVANETGAFFFLINGPEIMSKLAGESESNLRKAFEEAEKNAPAIIFIDELDAIAPKREKTHGEVERRIVSQLLTLMDGLKQRAHVIVMAATNRPNSIDPALRRFGRFDREVDIGIPDSTGRLEILQIHTKNMKLSDDVDLEQVANETHGHVGADLAALCSEAALQAIRKKMDLIDLEDETIDAEVMNSLAVTMDDFRWALSQSNPSALRETVVEVPQVTWEDIGGLEDVKRELQELVQYPVEHPDKFLKFGMTPSKGVLFYGPPGCGKTLLAKAIANECQANFISIKGPELLTMWFGESEANVREIFDKARQAAPCVLFFDELDSIAKARGGNIGDGGGAADRVINQILTEMDGMSIKKNVFIIGATNRPDIIDPAILRPGRLDQLIYIPLPDEKSRMAILKANLRKSPVAKDVDVDFLAKMTNGFSGADLTEICQRACKLAIRESIENEIRRERDRQTNPSAMEVEEDDPVPEIRRDHFEEAMRFARRSVSDNDIRKYEMFAQTLQQSRGFGSFRFPAGGQSGAGPSPGAGGGSGGGHFTEEDDDLYG
notes: p97, Xenopus; source: E. coli Rosetta 2 (DE3), purified (HisTrap HP, Superose 6 Increase)
In the case of B1, the “stoichiometry N” value came to 6.
